Reference: patent US9144594B2, “Cathepsin L mediated diseases and associated methods and products” (University of Miami, priority 2005, dated 2015)
Changes are numbered by the printed parent chain. Names and notes keep the numbering of the source. “Also recorded” adds a separate entry of the source.

Legend:
CatL = assay: Dynamin p40 fragment in kidney extracts after gene delivery and LPS injection; format: in vivo, mouse; settings: LPS injected at the time of gene delivery
Text: Next the cleavage pattern of dyn1 in kidney extracts following LPS injection was examined. Kidney cytosols were probed with antibody against the GTPase domain of dynamin, which detects p40. […] Western blotting also detected a dynamin fragment of ˜55 kD. As in cultured podocytes, the presence of this fragment was LPS- and CatL-independent (FIGS. 20B, lane 5 and 20C, lanes 1 and 2), further supporting the idea that it is generated by other proteases during tissue preparation.
Four mice kidneys were homogenized in buffer containing 20 mM HEPES pH 7.5, 100 mM NaCl, 1 mM MgCl2, 1 mM PMSF, proteinase inhibitors, calpain inhibitor (Calbiochem, San Diego, Calif.) and E-64d using dounce homogenizer. Subsequently, cytosol was centrifuged for 10 min at 7000 rpm. Proteins were solubilized by 1% Triton X, 1 h at 4° C., before it was spun at 50,000 rpm for 1 h.
CatL plasmids encoding short and long CatL (Goulet et al., Biol Chem 387, 1285-1293 (2004)), Dyn1 plasmids (pcDNA-driven) or p2.5 Podocin-driven (Moeller et al., Genesis 35, 39-42 (2003)) were introduced into mice (n>10, each construct) using the TransIT in vivo gene delivery system according to the manufacturer's instruction (Mirus Bio Corporation, Madison, Wis.). 10 and 24 h after gene delivery, proteinuria was assessed by Multistix 8 SG strips (Bayer Corporation, Elkhart, Ind.), and Bradford protein assay (Sigma, Saint Louis, Mo.). From the same urines the protein creatinine ratio was determined with Albuwell M and Creatinine Companion protein creatinine ELISA kits (Exocell Inc., Philadelphia, Pa.).

podocytes [1] = assay: Actin stress fiber staining in cultured podocytes; format: cell-based, mouse; settings: for actin stress fibers, in words: overexpression in cultured podocytes
Text: This study examined the role of dynamin in actin dynamics of podocytes. An adenoviral expression system was utilized to obtain expression of various dynamin mutants with more than 90% infection efficiency in cultured differentiated mouse podocytes and analyzed the organization of the actin cytoskeleton, their migratory and endocytotic behavior (FIG. 1). […] This type of actin rearrangement in cultured podocytes is resembling actin rearrangement in damaged podocytes during proteinuria in situ (Smoyer and Mundel, 1998). […] Thus, the consequence on actin dynamics in podocytes was examined when dynamin is hyperactive by expressing known dominant activators, dynK694A and dynR725A (SEQ ID NO.4). Both mutants are predicted to live longer in the GTP-bound form. […] To further examine this surprising phenotype in a biological context, motility assays were performed next using a modified Boyden Chamber assay.
Since podocyte FP effacement is primarily driven by the rearrangement of the actin cytoskeleton (Asanuma et al., 2006), actin morphology was examined in cultured podocytes expressing different dynamin mutants. Podocytes were infected with various dynamin constructs using an adenoviral expression system that enables greater than 90% efficiency of infection. The experiments were performed using dyn1 (FIG. 22) as well as dyn2, with identical results. […] Thus, treatments which abolish actin stress fibers in cultured podocytes cause proteinuria in mice. […] Consistent with this notion, the deleterious effects of LPS (which reduces stress fibers) on kidney function were ameliorated by expression of dynR725A (which induces stress fibers).
Podocytes were grown under non-permissive conditions to 70% confluence. Cells were washed twice with 1×PBS and infected with 1.2 ml of serum-free DMEM media containing 100 μl transactivator virus, 100 μl virus expressing dyn1 or dyn2. After 2 h of infection at 37° C., media containing virus was replaced with full DMEM. If cells were treated with LPS or PAN, 50 μg/ml of LPS or 50 μg/ml PAN was added at this point. 18-24 h post-infection, cells were detached using trypsin and processed either for subcellular fractionation or tested in the motility assays as described in (Reiser et al., J Biol Chem 279, 34827-34832 (2004)). When stated, 20 μM of Z-FF-FMK CatL specific inhibitor (Calbiochem, San Diego, Calif.) was added simultaneously with addition of LPS.

podocytes [2] = assay: Rhodamine-transferrin uptake (endocytosis) in podocytes; format: cell-based, mouse; settings: overexpression in podocytes
Protocol: Since dynamin is known to play a major role in regulation of clathrin-mediated endocytosis, it appeared possible that the observed actin phenotypes as described above were indirect consequence of changes in endocytosis. […] While LPS treatment of cells overexpressing dynWT had no effect on endocytosis of rhodamine-transferrin (FIG. 1D), it did induce cell motility and changes in actin cytoskeleton.
Conditionally immortalized mouse podocyte cell lines were grown as described previously (Mundel et al., Exp Cell Res 236; 248-258; (1997)). Dynamin antibodies: Anti-dynamin (hudy 1) monoclonal antibody was purchased from Upstate Technology (Lake Placid, N.Y.); mouse anti-dyn1 monoclonal antibody (MAB 5402) was from Chemicon (Temecula, Calif.); mouse anti-dyn1 monoclonal antibody (VAM-SVO41) was from StressGene (Victoria, Canada). The rabbit antiserum against mouse CatL was used as described (Ishidoh and Kominami, 1994). For immunogold and immunocytochemistry analysis of CatL, we used a rabbit polyclonal antibody against CatL as described before (Ahn et al., Traffic 3, 147-159 (2002)). CatL −/− fibroblasts were maintained as described previously (Hsieh et al., J Immunol 168, 2618-2625 (2002)). Stable CatL knock-down cell lines were generated with a vector-based siRNA directed against CatL (target sequence 5′-GTGGACTGTTCTCACGCT-3; SEQ ID NO.32). Quantitative PCR was performed on a Applied Biosystems 7300 Real-Time PCR System. Fold-expression changes were calculated using the comparative CT method for relative quantitation with the equation 2^−ΔΔCT. Protein expression levels for dynamin and CatL were calculated using densitometric analysis with Kodak imaging software. Statistical significance was assessed with the unpaired t-test with Welch's correction. Transfections with CatL constructs were performed using Lipofectamine 2000 (Invitrogen) following manufacturer's instructions. Immunocytochemical analysis of cultured podocytes was done as described (Reiser et al., J Biol Chem 279, 34827-34832 (2004)). Immunoperoxidase labeling of human tissue was done on formalin fixed kidney biopsies embedded in paraffin. Transmission electron microscopy (TEM) and immunoelectron microscopy (IEM) were performed as described (Regele et al., J Am Soc Nephrol 11, 403-412 (2000)). Subcellular fractionation of cultured cells was performed as described (Damke et al., J Cell Biol 127, 915-934 (1994)). Internalization of rhodamine-transferrin (R-Tfn) was performed using 20 μg/ml R-Tfn in PBS containing 1 mM CaCl2, 1 mM MgCl2, 5 mM glucose, and 0.2% BSA for 10 min at 37° C.

dynamin = assay: Dynamin self-assembly, apparent affinity measured in vitro; format: biochemical
Text: The fact that this significant decrease in the fluorescence lifetime of ECFP is statistically insignificant is due to high fluctuations of the lifetimes between different cells (high error bar in Table 3). This is most likely due to ability of dynK694A to overcome its assembly defect under certain circumstances as shown in vitro. The fact that ECFP-dynK694A has a faster lifetime than ECFP-dynI690K is in agreement with its less severe assembly defect measured in vitro (apparent affinity of dynK694A is ˜7-fold lower then dynWT, whereas it is unmeasurable for dynI690K).

Sequence of CatL (P06797 114-333 limits assumed): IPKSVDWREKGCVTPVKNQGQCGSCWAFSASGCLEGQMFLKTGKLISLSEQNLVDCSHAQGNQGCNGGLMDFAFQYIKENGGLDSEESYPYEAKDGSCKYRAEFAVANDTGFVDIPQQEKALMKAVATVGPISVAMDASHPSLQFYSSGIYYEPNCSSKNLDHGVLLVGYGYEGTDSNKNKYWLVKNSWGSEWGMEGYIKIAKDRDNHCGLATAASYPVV

With “dynWT: wild type dynamin overexpressed by adenovirus or delivered as dynamin 1 cDNA” the “generation of p40 in kidney extracts, in words” value (“generation” for short) (CatL) was “generation of p40”, the “actin stress fibers, in words” value (podocytes [1]) was “did not dramatically alter stress fiber pattern; also recorded: did not significantly alter the F-actin staining pattern” and the “transferrin uptake (endocytosis), in words” value (shortened to “transferrin uptake”) (podocytes [2]) was “did not enhance the overall transferring uptake”.

B1: dynK44A: dominant-negative dynamin mutant that cannot bind GTP (protein, UniProt Q05193 1-864, looked up, variant K44A)
Dynamin-1: MGNRGMEDLIPLVNRLQDAFSAIGQNADLDLPQIAVVGGQSAGASSVLENFVGRDFLPRGSGIVTRRPLVLQLVNATTEYAEFLHCKGKKFTDFEEVRLEIEAETDRVTGTNKGISPVPINLRVYSPHVLNLTLVDLPGMTKVPVGDQPPDIEFQIRDMLMQFVTKENCLILAVSPANSDLANSDALKVAKEVDPQGQRTIGVITKLDLMDEGTDARDVLENKLLPLRRGYIGVVNRSQKDIDGKKDITAALAAERKFFLSHPSYRHLADRMGTPYLQKVLNQQLTNHIRDTLPGLRNKLQSQLLSIEKEVEEYKNFRPDDPARKTKALLQMVQQFAVDFEKRIEGSGDQIDTYELSGGARINRIFHERFPFELVKMEFDEKELRREISYAIKNIHGIRTGLFTPDMAFETIVKKQVKKIREPCLKCVDMVISELISTVRQCTKKLQQYPRLREEMERIVTTHIREREGRTKEQVMLLIDIELAYMNTNHEDFIGFANAQQRSNQMNKKKTSGNQDEILVIRKGWLTINNIGIMKGGSKEYWFVLTAENLSWYKDDEEKEKKYMLSVDNLKLRDVEKGFMSSKHIFALFNTEQRNVYKDYRQLELACETQEEVDSWKASFLRAGVYPERVGDKEKASETEENGSDSFMHSMDPQLERQVETIRNLVDSYMAIVNKTVRDLMPKTIMHLMINNTKEFIFSELLANLYSCGDQNTLMEESAEQAQRRDEMLRMYHALKEALSIIGDINTTTVSTPMPPPVDDSWLQVQSVPAGRRSPTSSPTPQRRAPAVPPARPGSRGPAPGPPPAGSALGGAPPVPSRPGASPDPFGPPPQVPSRPNRAPPGVPSRSGQASPSRPESPRPPFDL
With B1 the “actin stress fibers, in words” value (podocytes [1]) was “loss of stress fibers; also recorded: abolished stress fibers” and the “transferrin uptake” value (podocytes [2]) was “completely inhibited transferring uptake”.

B2: dynL356Q, G358V: dynamin mutant (SEQ ID NO.3) not recognized by cathepsin L; ELSGGA mutated to EQSVGA (protein, listed as Homo sapiens)
chain: B1 Dynamin-1 with A44K, L356Q, G358V
In the case of B2, the “generation” value (CatL) is reported as “not generated” and the “actin stress fibers, in words” value (podocytes [1]) is reported as “did not significantly alter the F-actin staining pattern”.

B3: dynK694A: dominant activator dynamin mutant impaired in self-assembly (protein)
chain: B1 Dynamin-1 with A44K, K694A
B3 was tested, and the “actin stress fibers, in words” value (podocytes [1]) was “did not dramatically change actin stress fibers”, the “transferrin uptake” value (podocytes [2]) was “lead to increase in transferring uptake” and the “apparent affinity for self-assembly, fold lower than dynWT” value (dynamin) was about 7 fold.

B4: dynR725A: dynamin mutant (SEQ ID NO.4) with impaired GTP hydrolysis capacity (protein, listed as Homo sapiens)
chain: B1 Dynamin-1 with A44K, R725A
B4 was tested, and the “generation” value (CatL) was “did not result in generation of p40”, the “loss of stress fibers under LPS or PAN, in words” value (podocytes [1]; LPS and PAN treatment) was “prevented the loss of actin stress fibers; also recorded: inhibited the ability of LPS to reduce stress fibers” and the “actin stress fibers, in words” value (podocytes [1]) was “significantly induced stress fibers formation; also recorded: decreasing cortical actin and inducing stress fibers”. The “transferrin uptake” value (podocytes [2]) was “exhibited the wild-type levels of endocytosis”.
